Experimental data: patent publication US20160166666A1, “TUMOR ANTIGEN PEPTIDE” (Sumitomo Dainippon Pharma Co., Ltd., priority 2013, published 2016)

Columns and labels:
[1] = target: T1, HLA-A*02:01 on T2 cells (human, UniProt P04439 25-302 at identity 0.94)); experiment: MHC class I expression stabilization test on T2 cells as in Example 2, flow cytometry
T1 construct: whole, on cells; Empty MHC class I on the cell surface that is stabilized by an added peptide; the text gives HLA-A*02:01
T1 MHC heavy: not shown

[2] = target: T2, HLA-A*24:02 on T2-A24 cells (human, UniProt P04439-2 25-302 at identity 0.92)); experiment: MHC class I expression stabilization test on T2-A24 cells as in Example 2, flow cytometry
T2 construct: whole, on cells; Empty MHC class I on the cell surface that is stabilized by an added peptide; the text gives HLA-A*24:02
T2 MHC heavy: not shown

B1: Peptide represented by SEQ ID No: 11, OR7C1 V126I (117-126) (peptide)
peptide: VMAYDRFVAI
notes: Synthetic peptide, Fmoc method
- mean fluorescence intensity (MFI) solvent ratio [1]: 2.2 ratio to solvent
- mean fluorescence intensity (MFI) solvent ratio [2]: 3.8 ratio to solvent
